These results are taken from publication PMC11335232.

This series addresses T1, CTCF recombinant full-length (OriGene) (UniProt P49711).
T1 sequence: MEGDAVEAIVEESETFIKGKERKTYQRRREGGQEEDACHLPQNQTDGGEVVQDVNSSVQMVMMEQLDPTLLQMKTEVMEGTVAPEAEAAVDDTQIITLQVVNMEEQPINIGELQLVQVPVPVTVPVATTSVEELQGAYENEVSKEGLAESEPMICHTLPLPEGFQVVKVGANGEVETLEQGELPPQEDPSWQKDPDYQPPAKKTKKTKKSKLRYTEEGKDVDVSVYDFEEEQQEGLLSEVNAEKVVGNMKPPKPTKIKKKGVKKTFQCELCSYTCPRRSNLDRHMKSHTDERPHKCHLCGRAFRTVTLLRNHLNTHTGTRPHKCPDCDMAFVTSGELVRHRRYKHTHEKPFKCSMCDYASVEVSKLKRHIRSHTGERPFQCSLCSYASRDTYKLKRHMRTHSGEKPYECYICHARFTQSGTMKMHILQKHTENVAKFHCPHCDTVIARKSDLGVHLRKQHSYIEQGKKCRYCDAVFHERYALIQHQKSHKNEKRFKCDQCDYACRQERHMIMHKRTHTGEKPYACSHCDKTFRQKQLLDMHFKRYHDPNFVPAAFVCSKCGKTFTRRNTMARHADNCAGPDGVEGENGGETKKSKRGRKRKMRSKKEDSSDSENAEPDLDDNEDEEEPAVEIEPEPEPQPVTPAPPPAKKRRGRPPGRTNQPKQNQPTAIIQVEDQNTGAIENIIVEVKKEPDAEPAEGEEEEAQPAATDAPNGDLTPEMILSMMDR
In words: EMSA, competition. The note with it: LightShift Chemiluminescent RNA EMSA Kit (20158) and Pierce Magnetic RNA-Protein Pull-down Kit (20164) protocols; buffer, salt, pH and temperature not stated. On the technique in general: Mobility shift assays separate free from complexed probe on a gel.

For the sequence “TTTACAGCGGTGAGGACCACCAAGGGGAGCTAAAATTCGAATGTAGGGAACAGACGATTAACAAGTTAGTTTCAGAATGAAAGACTCGAGTGTAAGAATTCAATGGGATAATTCCTGTAAAGCGTTTAGTACAGTAAAGAGCGAAGGGAAATTCTGAATAAAAGGCAGACACTATTTTAGGATTTGGCCTTCCCCG (double strand) [RAB5A-set3 promoter DNA probe (196 bp)]”, the binding entry is reported as “binds”.
